# Experimental data from paper PMC10499821.
# B1: unnamed (parent)
# chain 1: NNELSPVALRQMSCAAGTTQTACTDDNALAYYNTTKGGRFVLALLSDLQDLKWARFPKSDGTGTIYTELEPPCRFVTDTPKGPKVKYLYFIKGLNNLNRGMVLGSLAATVRLQ
# chain 2: AEGIDIGEMPSYDLVL
# Variants of: B1
# Assay: fluorescence polarisation saturation
# Settings: with partner chain of the complex shown
row,Variant,Kd
1,chain 1 NNELSPVALRQMSCAAGTTQTACTDDNALAYYNTTKGGRFVLALLSDLQDLKWARFPKSDGTGTIYTELEPPCRFVTDTPKGPKVKYLYFIKGLNNLNRNMVLDSLAATVRLQ [chain 1 G100N G104D],20 µM
